{"source": "the RNAGym collection of RNA variant scans (doi:10.1073/pnas.2313332121)", "parents": {"B1": {"name": "TPR t1 (parent)", "chain": "GACCAAUCUGCCCUCAGAGCUCGAGAACAUCUUCGGAUGCAGAGGAGGCAGGCUUCGGUGGCGCGAUAGCGCCAACGUCCUCAACCUCCAAUGCAUCCCACCACAUGAUGAUGCCUGAAGAGCCUUGGUUUUUUG"}}, "data": [{"variants_of": "B1", "assay": "polymerase ribozyme fitness, log enrichment relative to wild type (log ratio); higher = more active; in vitro selection for triplet polymerase activity", "method_in_brief": "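Libraries of mutants in each subunit of a heterodimeric triplet polymerase ribozyme were generated by PCR and transcribed. In triplicate, each went through one in vitro selection round: annealing with biotinylated primer, partner subunit and triplets; frozen incubation at −7 °C; gel excision of extended constructs; streptavidin-bead capture; RT-PCR. Fitness, taken from Illumina sequencing of input and output libraries, is the logarithm of a genotype's enrichment over wild-type enrichment, averaged across replicates with inverse-variance weights. The logarithm is base 2, and genotypes needed ≥10 input reads and ≥1 read per output to be kept.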", "values": [{"variant": "GACCAAUCUGCCCUCAGAGCUCGAGAACAUCUUCGGAUGUAGAGGAGGCAGGCUUCGGUGGCGCGAUAGCGCCAACGUCCUCAACCUCCAAUGCAUCCCACCACAUGAUGAUGCCUGAAGAGUCUUGGUUUUUUG", "polymerase ribozyme fitness (log ratio)": 0.0584}, {"variant": "GACCAAUCUGCCCUCAGAGCUCGAGAACAUCUUCGGAUGUAGAGGAGGCAGGCUUCGGUGGCGCGAUAGCGCCAACGUCCUCAACCUCCAAUGCAUCCCAUCACAUGAUGAUGCCUGAAGAGCCUUGGUUUUUUG", "polymerase ribozyme fitness (log ratio)": 0.317}, {"variant": "GACCAAUCUGCCCUCAGAGCUCGAGAACAUCUUCGGAUGUAGAGGAGACAGGAUUCGGUGGCGCGAUAGCGCCAACGUCCUCAACCUCCAAUGCAUCCCACCACAUGAUGAUCCCUGAAGAGCCUUGGUUUUUUG", "polymerase ribozyme fitness (log ratio)": -2.73}, {"variant": "GACCAAUCUGCCCUCAGAGCUCGAGAACAUCUUCGGAUGUAGAGGAGGCAGGUUUCGGUGGCGCGAUAGCGCCAGCGUCCUUAACCUCCAAUGCAUCCCACCACAUGAUGAUGCCUGAAGAGCCUUGGUUUUUUG", "polymerase ribozyme fitness (log ratio)": -0.592}, {"variant": "GACCAAUCUGCCCUCAGAGCUCGAGAACAUCUUCGGAUGUAGAGGAGGCAGGAUUCGGUGGCGCGAUAGCGCCAACGUCCUCAACCUCCAAUGCAUCCCACCACAUGAUGAUGCCUGAAGAGCCUUGGUUUUUUG", "polymerase ribozyme fitness (log ratio)": 0.0513}, {"variant": "GACCAAUCUGCCCUCAGAGCUCGAGAACAUCUUCGGAUGUAGAGGAGGCAGGGUUCGGUGGCGCGAUAGCGCCAACGUCCUCAACCUCCAAUGCAUCCCACCACAUGAUGAUGCCUGAAGAGCCUUGGUUUUUUG", "polymerase ribozyme fitness (log ratio)": 0.608}, {"variant": "GACCAAUCUGCCCUCAGAGCUCGAGAACAUCUUCGGAUGUCGAGGAGGCAGGCUUCGGUGGCGCGAUAGCGCCAAUGUCCUCAACCUCCAAUGCAUCCCACCACAUGAUGAAGCCUGAAGAACCUUGGUUUUUUG", "polymerase ribozyme fitness (log ratio)": -3.19}, {"variant": "GACCAAUCUGCCCUCAGAGCUCGAGAACAUCUUCGGAUGUAGAGGAGGCAGGCUUCGGUGGCGUGAUAGCGCGAACGUCCUCAACCUCCAAUGCAUCCCACCACAUGAUGAUGCCUGAAGAACCUUGGUUUUUUG", "polymerase ribozyme fitness (log ratio)": -5.15}, {"variant": "GACCAAUCUGCCCUCAGAGCUCGAGAACAUCUUCGGAUGUAGAGGAGGCAGACUUCGGUUGCGCGAUAGCGCCAACGUCCUCAACCUCCAUUGCAUCCCACCACAUGAAGAUGCCUGAAGAGCCUUGGUUUUUUG", "polymerase ribozyme fitness (log ratio)": -6.64}, {"variant": "GACCAAUCUGCCCUCAGAGCUCGAGAACAUCUUCGGAUGUAGAGGAGGCAGGAUUCGGUGGCGCGAUAGCGCCAACGUCCUCAACCUCCAAUGCAUCCCACCACAUGAUGAUCCCUGAAGAGCCUUGGUUUUUUG", "polymerase ribozyme fitness (log ratio)": -2.73}, {"variant": "GACCAAUCUGCCCUCAGAGCUCGAGAACAUCUUCGGAUGUCGAGGAGUCAGGCUUUGCUGGCGCGAUAGCGCCAACGUCCUCAACCUCCAAUGCAUCCCACCACAUGAUGAUGCCUGAAGAGCCUUGGUUUUUUG", "polymerase ribozyme fitness (log ratio)": -1.43}, {"variant": "GACCAAUCUGCCCUCAGAGCUCGAGAACAUCUUCGGAUGUAGAGGAGGCAGUCUUCGGUGGCGCGAUAGCGCCAACGUCCUCAACCUCCAAUGCAGCCCACCACUUGAUGAUGCCUGAAAAGCCUUGCUUGUUUG", "polymerase ribozyme fitness (log ratio)": -6.51}, {"variant": "GACCAAUCUGCCCUCAGAGCUCGAGAACAUCUUCGGAUGUAGAGGAGGCAGGCUUCGGUGGCGCGAUAGCGCCGACUUCCUCAACCUCCAAUGCAUCCCACCACAUGAUGAUGCCUGAAGAGUCUUGGUUUUUUG", "polymerase ribozyme fitness (log ratio)": 1.22}, {"variant": "GACCAAUCUGCCCUCAGAGCUCGAGAACAUCUUCGGAUGUAGAGGAGGCAGGCUUCGGUGGCGCGAUAGCGCCCACGUCCUCAACCUCCAAUGCAUCCCACCACAUGAUGAUGCCUGAAAAGCCUUGGUUCUUUG", "polymerase ribozyme fitness (log ratio)": 0.155}, {"variant": "GACCAAUCUGCCCUCAGAGCUCGAGAACAUCUUCGGAUGUAGAGGAGGCACGCUUCUGUGGCGCGAUAGCGCCAACGUCCUCAACCUCUAAUGCAUCCCACCACAUGAUGAUGCCUGAAUAGCCUUGGUUUUUUG", "polymerase ribozyme fitness (log ratio)": -3.44}, {"variant": "GACCAAUCUGCCCUCAGAGCUCGAGAACAUCUUCGGAUGUAGAGGAGGCAGUCUUCGGUGGCGCGAUAGCGCCAACGUCCUCAACCUCCAAUGCAUCCCACCACAUGAUGAUGCCUGAAGAGCCUUGGUUUUUUG", "polymerase ribozyme fitness (log ratio)": -1.14}, {"variant": "GACCAAUCUGCCCUCAGAGCUCGAGAACAUCUUCGGAUGUAAAGGAGGCAGGCUUCGGUGGCGCGAUAGCGCCAACGUCCUCAACCUCCAAUGCAUCCCAGCACAUGAUGAUGACUGAAGAGCCUUGGUUUUUUG", "polymerase ribozyme fitness (log ratio)": -5.28}, {"variant": "GACCAAUCUGCCCUCAGAGCUCGAGAACAUCUUCGGAUGUCGAGGAGGCAGGCUUAGGUGGCGCGAUAGCGCCAACGUCCUCAACCUCCAAUGCAUCCCACCACAUGAUGAUGACUGAAGAGCCUUGGUUUUUUG", "polymerase ribozyme fitness (log ratio)": -2.89}, {"variant": "GACCAAUCUGCCCUCAGAGCUCGAGAACAUCUUCGGAUGGAGAGGAGGCAGGCUUCGGUGGCGCGAUAGCGCCAACGUCCUCAACCUCCAAUGCAUCCCACCACAUGAUGAUGCCCGAAGAGCCUUGGUUUUUUG", "polymerase ribozyme fitness (log ratio)": -2.34}, {"variant": "GACCAAUCUGCCCUCAGAGCUCGAGAACAUCUUCGGAUGUAGAGGAGGCAGGCUUGGGUGGCGCGAUAGCGACAAAGUCCUCAACCUCCAAUGCAUCCCACCACAUGAUGAUGCCUGAAGAGCCUUGGUUUUUUG", "polymerase ribozyme fitness (log ratio)": -2.93}, {"variant": "GACCAAUCUGCCCUCAGAGCUCGAGAACAUCUUCGGAUGUAGAGGAGGCAGGCUUCGGUGGCGCGAUAGCGCCAACGUCCUCAACCUCCAAUGCAUCCCGCCACAUGAUGAUGCCUGAAGAGCCUUGGUUUUUUG", "polymerase ribozyme fitness (log ratio)": -4.16}]}]}
